Data set [1] has as its target T1, Pub1p R3 (RRM3, TRRM) (Saccharomyces cerevisiae, UniProt P32588 315-414).
T1 sequence: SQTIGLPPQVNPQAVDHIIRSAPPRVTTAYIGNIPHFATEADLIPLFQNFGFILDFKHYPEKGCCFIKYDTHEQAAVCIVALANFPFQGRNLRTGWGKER
Briefly: NMR titration; 1:1 protein:RNA; Kd n.d.; 25 mM potassium phosphate pH 7.0 (6.5-7.0 in general NMR methods), 25 mM NaCl, 0.5 mM DTT, 25 C; 100 µM protein, RNA up to 400 µM (R3) or 1:1 (R12). As to conditions: protein: recombinant; tags: TrxA-6xHis tag removed by TEV; chain copies: 2; single strand.

Data set [2] deals with T1, Pub1p R3 (RRM3, TRRM). The data set can be described thus: NMR titration; 2:1 protein:RNA; 25 mM potassium phosphate pH 7.0 (6.5-7.0 in general NMR methods), 25 mM NaCl, 0.5 mM DTT, 25 C; 100 µM protein, RNA up to 400 µM (R3) or 1:1 (R12). The conditions noted are these: protein: recombinant; tags: TrxA-6xHis tag removed by TEV; chain copies: 2; single strand.
In data set [3] the target is T2, Pub1p R12 (RRM1-RRM2) (Saccharomyces cerevisiae, UniProt P32588 32-242).
T2 sequence: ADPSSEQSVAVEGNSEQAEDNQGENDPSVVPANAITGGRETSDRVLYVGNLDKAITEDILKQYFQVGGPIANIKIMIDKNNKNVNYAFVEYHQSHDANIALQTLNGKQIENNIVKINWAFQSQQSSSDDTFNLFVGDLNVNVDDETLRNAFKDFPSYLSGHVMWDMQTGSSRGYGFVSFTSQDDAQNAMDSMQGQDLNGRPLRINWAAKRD
Briefly: NMR titration; intermediate exchange; 25 mM potassium phosphate pH 7.0 (6.5-7.0 in general NMR methods), 25 mM NaCl, 0.5 mM DTT, 25 C; 100 µM protein, RNA up to 400 µM (R3) or 1:1 (R12). As to conditions: protein: recombinant; tags: TrxA-6xHis tag removed by TEV; single strand.

Data set [4] addresses T1, Pub1p R3 (RRM3, TRRM). Briefly: NMR titration; 1:1 protein:RNA; 25 mM potassium phosphate pH 7.0 (6.5-7.0 in general NMR methods), 25 mM NaCl, 0.5 mM DTT, 25 C; 100 µM protein, RNA up to 400 µM (R3) or 1:1 (R12). As to conditions: protein: recombinant; tags: TrxA-6xHis tag removed by TEV; chain copies: 2; single strand.
Data set [5] addresses T2, Pub1p R12 (RRM1-RRM2). Briefly: NMR titration; slow exchange; 25 mM potassium phosphate pH 7.0 (6.5-7.0 in general NMR methods), 25 mM NaCl, 0.5 mM DTT, 25 C; 100 µM protein, RNA up to 400 µM (R3) or 1:1 (R12). As to conditions: protein: recombinant; tags: TrxA-6xHis tag removed by TEV; single strand.
Data set [6] has as its target T3, Tif4631p (1–402) (Saccharomyces cerevisiae, UniProt P39935 1-402).
T3 construct: Cloned 'following equivalent methods' to the Pub1p constructs (same modified pET28 vector); Unlabelled or 15N-labelled according to the NMR experiment; source: E. coli BL21(DE3), purified (HisTrap, TEV digestion, second nickel column, anion exchange MonoQ); not shown: thioredoxin A, N-terminal, cleaved; His6, internal, cleaved
T3 sequence (looked up): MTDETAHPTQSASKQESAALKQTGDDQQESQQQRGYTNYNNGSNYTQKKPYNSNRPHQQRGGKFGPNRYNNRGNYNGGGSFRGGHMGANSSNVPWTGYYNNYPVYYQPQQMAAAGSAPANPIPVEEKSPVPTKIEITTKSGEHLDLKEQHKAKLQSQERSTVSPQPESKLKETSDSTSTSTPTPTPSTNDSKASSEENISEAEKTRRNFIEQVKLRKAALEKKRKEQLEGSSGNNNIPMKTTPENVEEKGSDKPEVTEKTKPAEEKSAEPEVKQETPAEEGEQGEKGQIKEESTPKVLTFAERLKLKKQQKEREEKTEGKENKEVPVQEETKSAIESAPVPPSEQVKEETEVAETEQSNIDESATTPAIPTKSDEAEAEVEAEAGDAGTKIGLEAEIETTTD
The data set can be described thus: NMR titration; 1H-15N HSQC of 100 µM 15N-labelled Tif4631p (1–402) with 120 µM unlabelled Pub1p R3 added; 25 mM potassium phosphate pH 7.0, 25 mM NaCl, 0.1 mM DTT, 25°C. The conditions noted are these: both partners purified.

The target of data set [7] is T4, Tif4631p (1–184) (Saccharomyces cerevisiae, UniProt P39935 1-184).
T4 construct: Tif4631p (yeast eIF4G1), Saccharomyces cerevisiae, residues 1-184; Cloned 'following equivalent methods' to the Pub1p constructs; source: E. coli BL21(DE3), purified (HisTrap, TEV digestion, second nickel column, anion exchange MonoQ); not shown: thioredoxin A, N-terminal, cleaved; His6, internal, cleaved
T4 sequence (looked up): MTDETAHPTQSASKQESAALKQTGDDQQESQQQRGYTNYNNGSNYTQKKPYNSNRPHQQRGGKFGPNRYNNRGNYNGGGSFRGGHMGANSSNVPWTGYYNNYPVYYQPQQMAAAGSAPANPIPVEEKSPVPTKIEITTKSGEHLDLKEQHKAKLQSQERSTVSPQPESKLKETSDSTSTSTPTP
Briefly: cross-linking; glutaraldehyde by vapour diffusion, 16 h at 4°C; Pub1p proteins 10 µM, Tif4631p (1–402) 1 µM, Tif4631p (1–184) 4 µM; 25 mM potassium phosphate, 150 mM NaCl, 0.1 mM DTT, pH 8.0; 15% SDS-PAGE, silver stain. As to conditions: both partners purified.

As usually defined, the Kd is the free concentration of one partner at which half of the binding sites on the other are occupied at equilibrium, for simple one-to-one binding.

Regarding UAUAUAUAUAUA (ssRNA) [(UA)6], the binding result in data set [1] is “binds”.

In the case of UAUAUAUAUAUAUA (ssRNA) [(UA)7], the Kd was < 1 µM in data set [2] and 0.894 µM in data set [3].

Turning to CUCUCUCUCUCU (ssRNA) [(CU)6], the Kd in data set [4] came out at 18.8 µM.

As to UUUUUUUUUUUUUU (ssRNA) [U14], the values for the Kd in data set [2] and in data set [5] were 2.16 µM and < 0.25 µM, respectively.

On to UUUUUUUUUUUU (ssRNA) [U12], for which the binding result in data set [1] is on record as “binds”.

Consider UUUUUUUUUU (ssRNA) [U10], for which the binding result in data set [1] is “binds”.

For the molecule AAAAAAAAAAAAAA (ssRNA) [A14], the Kd in data set [2] worked out at 78.5 µM.

B1: Pub1p R3 (RRM3 domain, residues 315–414) (domain or fragment, Saccharomyces cerevisiae, UniProt P32588 315-414, looked up)
chain: T1 sequence
notes: also called Pub1p TRRM; Pub1p RRM3; source: E. coli BL21(DE3), purified (HisTrap, TEV digestion, second nickel column, cation exchange); not shown: thioredoxin A, N-terminal, cleaved; His6, internal, cleaved
Take B1: the binding result in data set [6] and in data set [7] was “binds” throughout.

For AGAGAGAG (ssRNA) [(AG)4], in data set [4], the Kd was 88.3 µM.

(Values after PMC3169606, “Pub1p C-Terminal RRM Domain Interacts with Tif4631p through a Conserved Region Neighbouring the Pab1p Binding Site” (PLoS ONE, 2011).)
